Assay results as given in PMC5765368, “Large-Scale Low-Cost NGS Library Preparation Using a Robust Tn5 Purification and Tagmentation Protocol”.
Values belong to the molecule of their own block, whether it stands above or below them.

Experiments:
[1] = biological target: Tn5 transposase, hyperactive allele carrying the E54K and L372P mutations; experiment: SEC; untagged Tn5 on Superdex200 Increase 10/300 GL (Superdex200 10/300 GL at BZH) in 50 mM Tris pH 7.5, 800 mM NaCl, 0.2 mM EDTA, 2 mM DTT, 10% glycerol; last step of the purification
[2] = biological target: Tn5 transposase, hyperactive allele carrying the R27S, E54K and L372P mutations; experiment: as above
[3] = biological target: Tn5 transposase R27S,E54K,L372P (bacterial transposon Tn5 (expressed in …, UniProt Q46731 1-476, R27S;E54K;L372P)); experiment: ITC; ITC: 50 mM Tris pH 7.5, 800 mM NaCl, 0.1 mM EDTA, 5% glycerol, 25 C; 100 uM DNA titrated into 4 uM protein; details: protein: recombinant; tags: His6-Sumo3 removed by SenP2; one extra N-terminal Ser remains; chain copies: 2; 19 bp duplex with 5' overhang (14 nt for ME-A, 15 nt for ME-B)
[4] = biological target: Tn5 transposase E54K,L372P (hyperactive) (bacterial transposon Tn5 (expressed in …, UniProt Q46731 1-476, E54K;L372P)); experiment: as above; details: protein: recombinant; tags: His6-Sumo3 removed by SenP2; one extra N-terminal Ser remains; chain copies: 2; 19 bp duplex with 5' overhang (14 nt for ME-A, 15 nt for ME-B)

stoichiometry N [1]: 2
Molecule: Tn5 transposase, hyperactive allele carrying the E54K and L372P mutations (enzyme)

stoichiometry N [2]: 2
Molecule: Tn5 transposase, hyperactive allele carrying the R27S, E54K and L372P mutations (enzyme)

B1: annealed Tn5 linker oligonucleotide (mosaic end); Tn5ME-A/Tn5MErev or Tn5ME-B/Tn5MErev, not stated which (dsDNA)
DNA 1: TCGTCGGCAGCGTCAGATGTGTATAAGAGACAG
DNA 2: CTGTCTCTTATACACATCT
modifications: 5' phosphate on Tn5MErev
Kd [3]: 12.9 ± 2.1 µM
Kd [4]: 500 ± 90 nM
